Results published in patent US20260125472A1 (HEFEI TG IMMUNOPHARMA, published 2026).

Experiments:
[1] = molecular target: T1, PDL1 on A-375 melanoma cells, HCT-15 colorectal cancer cells and A549 lung cancer cells (UniProt Q9NZQ7 19-290, limits assumed); assay: flow cytometry, A549 cells, MFI [panel B]
T1 construct: whole, on cells
Procedure, shortened: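 Cells were blocked with goat serum at 4° C for 30 min, then incubated with serially diluted bispecific antibodies or hIgG1LALA control at 4° C for 30 min. Bound antibody was detected with Alexa-647 anti-human IgG (4° C, 30 min, dark) and read by flow cytometry.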

PDL1 protein = molecular target: T2, PDL1 protein (UniProt Q9NZQ7 19-238); assay: ELISA, coated PDL1 protein, OD450 [panel A]
T2 construct: Bought recombinant protein
Procedure, shortened: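 PDL1 protein coated at 2 μg/ml overnight at 4 °C, blocked with PBS/10% BSA; serially diluted bispecific antibodies or control IgG1LALA bound 1 h at 37 °C. Detection with HRP anti-human Fab secondary antibody and TMB for 3 min, stopped with sulfuric acid, absorbance at 450 nm.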

CD3E&D protein [2] = molecular target: T3, CD3E&D protein (UniProt P04234 22-105); assay: ELISA, coated CD3E&D protein, OD450 [panel A]
T3 construct: Purchased from Acro; also called CD3 E&D antigens; CD3E&D antigen protein
Source text: In this example, the binding properties of the CD3×Trop2 and CD3×PDL1 bispecific antibody (the production method and the amino acid sequences of the heavy and light chains were shown in Example 1) were detected by using ELISA. The CD3E&D, Trop2, or PDL1 protein was coated onto 96-well plates by inventors, and the strength of the signal after the addition of the antibody was used to determine the binding properties of the antibody and the corresponding protein.
(1) CD3E&D protein (purchased from Acro) was diluted to 2 μg/ml with PBS buffer, added to a 96-well plate at a volume of 100 μL/well, and placed at 4° C. overnight. The PBS buffer in the 96-well plate was aspirated, and the plate was washed 6 times with PBST (pH 7.2 PBS containing 0.1% Tween 20) buffer. Then, 200 μL/well PBS/10% BSA was added and incubated at 37° C. for 2 h for blocking. The blocking solution was removed, and the plate was washed 6 times with PBST. […] The absorbance was read at 450 nm using a microplate reader.

CD3 on CD8 T cells [3] = molecular target: T4, CD3 on CD8 T cells (Homo sapiens (Human), UniProt P07766 23-207); assay: flow cytometry, CD8 T cells in PBMCs, binding ratio % [panel A]
T4 construct: Native CD3 complex on CD8 T cells among PBMCs; also called T cells (PBMCs gated with anti-human CD8 antibody)
Procedure: (1) PBMCs were diluted to 2×10⁶/ml with PBS and added to a 1.5 ml EP tube at 100 μl/tube, goat serum was added thereto at 10 μl/tube. The cells were blocked at 4° C. for 30 min. The serially diluted bispecific antibodies, Cross3×Trop2, Cross303×Trop2, Cross307×Trop2, Cross308×Trop2, Cross309×Trop2, Cross310×Trop2, Cross311×Trop2, Cross312×Trop2, Cross313×Trop2, Cross314×Trop2, Cross316×Trop2, Cross317×Trop2, Cross318×Trop2, Cross323×Trop2, Cross325×Trop2, Cross326×Trop2, Cross3×PDL1, Cross313×PDL1, Cross316×PDL1, Cross325×PDL1, and control hIgG1LALA (purchased from Bio-Tech) were added and incubated at 4° C. for 30 min. 1 ml of PBS was added to the EP tube, followed by centrifugation at 3500 rpm for 5 min at 4° C. The supernatant was discarded, and the system was washed again with PBS. After centrifugation, the supernatant was discarded, and the cells were resuspended with PBS at 100 μl/tube. 1 μl/tube Alexa-647-labeled goat anti-human IgG secondary antibody (purchased from Jackson lab) and 0.5 μl/tube PerCP-Cy5.5-labeled anti-human CD8 antibody were added and incubated at 4° C. in the dark for 30 min. The cells were washed twice with PBS. After centrifugation, the supernatant was discarded. The cells were resuspended with 200 μl/tube of PBS and assay is performed by flow cytometry.

CD3E&D protein [4] = molecular target: T3, CD3E&D protein; assay: ELISA, coated CD3E&D protein, OD450 [panel B]
Procedure: In this example, the binding properties of the parental antibody Cross3 and the CD3 affinity-reduced antibody (the production method and the amino acid sequences of the heavy and light chains were shown in Example 1) were detected by ELISA. The CD3E&D protein was coated onto a 96-well plate by the inventors, and the strength of the signal after the addition of the antibody was used to determine the binding properties of the antibody and CD3E&D.
CD3E&D protein (purchased from Acro) was diluted to 2 μg/ml with PBS buffer, added to a 96-well plate at a volume of 100 μL/well, and placed at 4° C. overnight. The PBS buffer in the 96-well plate was aspirated, and the plate was washed 6 times with PBST (pH 7.2 PBS containing 0.1% Tween 20) buffer. Then, 200 μL/well PBS/10% BSA was added and incubated at 37° C. for 2 h for blocking. The blocking solution was removed, and the plate was washed six times with PBST. Then, the to-be-tested antibodies serially diluted with PBST/0.05% BSA, Cross3, Cross303, Cross307, Cross308, Cross309, Cross310, Cross311, Cross312, Cross313, Cross314, Cross316, Cross317, Cross318, Cross323, Cross325, Cross326, and control IgG1 (purchased from Bio-Tech) were added at 100 μL/well, and incubated at 37° C. for 1 h. The reaction system was removed, and the plate was washed 6 times with PBST. Then, the cells were incubated at 37° C. for 1 h with HRP (horseradish peroxidase)-labeled anti-human secondary antibody (Fab specific) (purchased from Sigma) serially diluted with PBST/0.05% BSA at 100 μL/well. The plate was washed six times with PBST, TMB (tetramethylbenzidine) was added at 80 μL/well and incubated at room temperature for 3 min. 4 M sulfuric acid was added at 80 μL/well to terminate the reaction. The absorbance was read at 450 nm using a microplate reader.

CD3 on CD8 T cells [5] = molecular target: T4, CD3 on CD8 T cells; assay: flow cytometry, CD8 T cells in PBMCs, MFI [panel B]
Procedure: PBMCs were diluted with PBS to 2×10⁶/mL and added to a 1.5 ml EP tube at a volume of 100 μL/tube, 10 μL/tube of goat serum was added thereto and incubated at 4° C. for 30 min for blocking. […] 1 mL of PBS was added to the EP tube, followed by centrifugation at 3500 rpm for 5 min at 4° C. The supernatant was discarded, and the cells were washed again with PBS. After centrifugation, the supernatant was discarded, and the cells were resuspended with 100 μl/tube PBS. 1 μl/tube Alexa-647-labeled goat anti-human secondary antibody (purchased from Jackson lab) and 0.5 μl/tube PerCP-Cy5.5-labeled anti-human CD8 antibody were added and incubated at 4° C. in the dark for 30 min. The cells were washed twice with PBS, and the supernatant was discarded after centrifugation. The cells were resuspended with […] of PBS and assayed using the flow cytometry.

CD3 on CD8 T cells [6] = molecular target: T4, CD3 on CD8 T cells; assay: flow cytometry, CD8 T cells in PBMCs, binding ratio % [panel A]; remark: listed apart in the source
Procedure, shortened: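 PBMCs at 2×10⁶/mL blocked with goat serum for 30 min at 4° C, then after washing stained for 30 min at 4° C in the dark with Alexa-647 goat anti-human secondary plus PerCP-Cy5.5 anti-CD8. Analysed by flow cytometry on CD8 T cells as binding ratio % and MFI.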

CD3E&D protein [7] = molecular target: T3, CD3E&D protein; assay: SPR (Biacore 8K), antibody on CM5 chip, CD3 E&D antigen as analyte; parameters: Fold change: reference not given here
Procedure: In a Biacore 8K (Cytiva) system, the antibody was diluted to 10 μg/mL in HBS-EP running buffer and coupled to a CM5 chip (Cytiva) at a flow rate of 10 μL/min.

T4 sequence (P07766 23-207 limits assumed): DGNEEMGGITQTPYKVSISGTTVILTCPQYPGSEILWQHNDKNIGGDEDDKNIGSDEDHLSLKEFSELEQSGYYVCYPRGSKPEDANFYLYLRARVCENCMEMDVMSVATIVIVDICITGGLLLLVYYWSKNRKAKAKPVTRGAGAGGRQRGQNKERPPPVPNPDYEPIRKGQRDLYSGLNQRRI
T3 sequence (chain, as listed by the source limits assumed, chain 1 of 2): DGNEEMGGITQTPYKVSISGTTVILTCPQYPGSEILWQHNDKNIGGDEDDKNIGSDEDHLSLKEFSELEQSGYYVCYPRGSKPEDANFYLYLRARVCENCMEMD
T3 sequence (P04234 22-105 limits assumed, chain 2 of 2): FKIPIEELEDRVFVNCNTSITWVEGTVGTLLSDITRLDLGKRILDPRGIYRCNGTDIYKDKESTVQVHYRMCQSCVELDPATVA
T1 sequence (Q9NZQ7 19-290 limits assumed): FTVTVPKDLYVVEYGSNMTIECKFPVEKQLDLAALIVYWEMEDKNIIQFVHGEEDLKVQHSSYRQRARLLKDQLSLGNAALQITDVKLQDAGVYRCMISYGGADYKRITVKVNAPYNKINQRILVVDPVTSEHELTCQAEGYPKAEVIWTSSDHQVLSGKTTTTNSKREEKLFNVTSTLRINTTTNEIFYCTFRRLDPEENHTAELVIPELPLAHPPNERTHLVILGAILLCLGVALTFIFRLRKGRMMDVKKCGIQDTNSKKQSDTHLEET
T2 sequence (Q9NZQ7 19-238 limits assumed): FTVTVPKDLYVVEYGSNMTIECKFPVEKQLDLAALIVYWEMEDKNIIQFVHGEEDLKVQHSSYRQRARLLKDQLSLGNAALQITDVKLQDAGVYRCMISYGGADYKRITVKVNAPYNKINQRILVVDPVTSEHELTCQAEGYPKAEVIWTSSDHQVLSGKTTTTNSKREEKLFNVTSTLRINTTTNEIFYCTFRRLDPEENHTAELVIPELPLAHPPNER

Row | EC50 (read off the curve) [1] | EC50 (read off the curve) (PDL1 protein) | EC50 (read off the curve) (CD3E&D protein [2]) | EC50 (read off the curve) (CD3 on CD8 T cells [3]) | EC50 (read off the curve) (CD3E&D protein [4]) | EC50 (read off the curve) (CD3 on CD8 T cells [5]) | EC50 (read off the curve) (CD3 on CD8 T cells [6]) | Fold change (CD3E&D protein [7]) | Kd (CD3E&D protein [7]) | koff (CD3E&D protein [7]) | kon (CD3E&D protein [7]) | Binder
1 | ~1 µg/mL | ~0.2 µg/mL | ~0.8 µg/mL | ~0.2 µg/mL |  |  |  |  |  |  |  | Cross316×PDL1 (bispecific antibody, human IgG1, kappa, L234A L235A) scFv: not shown heavy: QVQLVQSGAEVKKPGASVKVSCKASGYSFTGYYMHWVRQAPGQGLEWIGRINPYNGATTYSQNFKDRATMTVDTSISTAYMELSRLRSDDTAVYYCVPTGMGYFLMDYWGQGTLVTVSSASTKGPSVFPLAPSSKSTSGGTAALGCLVKDYFPEPVTVSWNSGALTSGVHTFPAVLQSSGLYSLSSVVTVPSSSLGTQTYICNVNHKPSNTKVDKKVEPKSCDKTHTCPPCPAPEAAGGPSVFLFPPKPKDTLMISRTPEVTCVVVDVSHEDPEVKFNWYVDGVEVHNAKTKPREEQYNSTYRVVSVLTVLHQDWLNGKEYKCKVSNKALPAPIEKTISKAKGQPREPQVCTLPPSREEMTKNQVSLSCAVKGFYPSDIAVEWESNGQPENNYKTTPPVLDSDGSFFLVSKLTVDKSRWQQGNVFSCSVMHEALHNHYTQKSLSLSPGK light: DIQLTQSPSFLSASVGDRVTITCKASQDVGSAVVWYQQKPGKAPKLLIYWASTRHTGVPSRFSGSGSGTEFTLTISSLQPEDFATYFCQQFTSYPTFGQGTKLEIKRTVAAPSVFIFPPSDEQLKSGTASVVCLLNNFYPREAKVQWKVDNALQSGNSQESVTEQDSKDSTYSLSSTLTLSKADYEKHKVYACEVTHQGLSSPVTKSFNRGEC
2 |  |  |  |  | ~0.03 µg/mL | ~2 µg/mL | ~0.5 µg/mL | 16.2 | 2.68 nM | 0.00761 s⁻¹ | 2.84e+06 M⁻¹ s⁻¹ | Cross317 (antibody, human IgG1, kappa, V domains shown) VH: EVQLLESGGGLVQPGGSLKLSCAASGFTFNTYAMNWVRQAPGKGLEWVARIRSKYNNYATYYADSVKDRFTISRDDSKNTAYLQMNNLKTEDTAVYYCVRHGNFGNSYVSWFAGWGQGTLVTVSS VL: ELVVTQEPSLTVSPGGTVTLTCRSSTGAVTTSNYANWVQQKPGQAPRGLIGGTNKRAPGTPARFSGSLLGGKAALTLSGVQPEDEAEYYCALWYSNLWVFGGGTKLTVLR
